What was measured:
Experiment in all cases: cell-based or functional assay
[1] = target: COX6A2-nanoluc-alfa-tag-fusion
[2] = target: T1, UQCC2-nanoluc-alfa-tag-fusion
T1 chain: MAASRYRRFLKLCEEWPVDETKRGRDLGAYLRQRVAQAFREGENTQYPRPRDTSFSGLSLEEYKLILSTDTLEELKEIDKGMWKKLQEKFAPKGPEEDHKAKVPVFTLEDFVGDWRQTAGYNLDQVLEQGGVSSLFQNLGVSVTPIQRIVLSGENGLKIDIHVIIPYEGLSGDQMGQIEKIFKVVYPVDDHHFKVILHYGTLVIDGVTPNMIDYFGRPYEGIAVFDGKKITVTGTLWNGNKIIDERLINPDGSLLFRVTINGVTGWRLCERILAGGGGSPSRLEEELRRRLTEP

[3] = target: T2, LYRM7-nanoluc-alfa-tag-fusion
T2 chain: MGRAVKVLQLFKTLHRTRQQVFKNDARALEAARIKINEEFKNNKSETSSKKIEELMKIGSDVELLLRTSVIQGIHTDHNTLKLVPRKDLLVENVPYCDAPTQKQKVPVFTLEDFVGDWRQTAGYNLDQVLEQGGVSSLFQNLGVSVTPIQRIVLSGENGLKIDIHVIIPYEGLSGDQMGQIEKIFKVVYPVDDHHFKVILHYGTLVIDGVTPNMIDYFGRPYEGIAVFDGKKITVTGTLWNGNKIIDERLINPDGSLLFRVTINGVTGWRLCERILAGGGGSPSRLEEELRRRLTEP

fold increase in COX6A2 protein expression (NLuc signal divided by firefly luciferase signal, relative to control) [1]: 1.48 fold
fold increase in UQCC2 protein expression (NLuc signal divided by firefly luciferase signal, relative to control) [2]: 2.87 fold
fold increase in LYRM7 protein expression (NLuc signal divided by firefly luciferase signal, relative to control) [3]: 1.39 fold
B1: FireflyLuciferase-P2A-a_alfatag_nano-Cezanne (other)
chain: MEDAKNIKKGPAPFYPLEDGTAGEQLHKAMKRYALVPGTIAFTDAHIEVDITYAEYFEMSVRLAEAMKRYGLNTNHRIVVCSENSLQFFMPVLGALFIGVAVAPANDIYNERELLNSMGISQPTVVFVSKKGLQKILNVQKKLPIIQKIIIMDSKTDYQGFQSMYTFVTSHLPPGFNEYDFVPESFDRDKTIALIMNSSGSTGLPKGVALPHRTACVRFSHARDPIFGNQIIPDTAILSVVPFHHGFGMFTTLGYLICGFRVVLMYRFEEELFLRSLQDYKIQSALLVPTLFSFFAKSTLIDKYDLSNLHEIASGGAPLSKEVGEAVAKRFHLPGIRQGYGLTETTSAILITPEGDDKPGAVGKVVPFFEAKVVDLDTGKTLGVNQRGELCVRGPMIMSGYVNNPEATNALIDKDGWLHSGDIAYWDEDEHFFIVDRLKSLIKYKGYQVAPAELESILLQHPNIFDAGVAGLPDDDAGELPAAVVVLEHGKTMTEKEIVDYVASQVTTAKKLRGGVVFVDEVPKGLTGKLDARKIREILIKAKKGGKIAVTRLKGSGATNFSLLKQAGDVEENPGPRSGTGSSGEVQLQESGGGLVQPGGSLRLSCTASGVTISALNAMAMGWYRQAPGERRVMVAAVSERGNAMYRESVQGRFTVTRDFTNKMVSLQMDNLKPEDTAVYYCHVLEDRVDSFHDYWGQGTQVTVSSGAPGSGPPSFSEGSGGSRTPEKGFSDREPTRPPRPILQRQDDIVQEKRLSRGISHASSSIVSLARSHVSSNGGGGGSNEHPLEMPICAFQLPDLTVYNEDFRSFIERDLIEQSMLVALEQAGRLNWWVSVDPTSQRLLPLATTGDGNCLLHAASLGMWGFHDRDLMLRKALYALMEKGVEKEALKRRWRWQQTQQNKESGLVYTEDEWQKEWNELIKLASSEPRMHLGTNGANCGGVESSEEPVYESLEEFHVFVLAHVLRRPIVVVADTMLRDSGGEAFAPIPFGGIYLPLEVPASQCHRSPLVLAYDQAHFSALVSMEQKENTKEQAVIPLTDSEYKLLPLHFAVDPGKGWEWGKDDSDNVRLASVILSLEVKLHLLHSYMNVKWIPLSSDAQAPLAQ

Source: US20240026330A1 (FLUX THERAPEUTICS, published 2024)
